For data set [1], the system named is ZFN SBS59489 (engineered). Description: cell_activity. The following applies: pair with SBS59488, multiplex with TRAC and B2M ZFNs plus GFP donor, T cells.
The next data set has as its target human CD19 (human) (UniProt P15391). As to the kind of experiment: cell-based or functional assay.
In data set [2] the test system is ZFN SBS53853 (engineered). As to the kind of experiment: cell_activity. Conditions: pair with SBS55266, TCRA ZFN only, human T cells.
The test system of data set [3] is ZFN SBS68876 (engineered). Description: cell_activity. The following applies: pair with SBS68877, human T cells.
Data set [4] relates to ZFN SBS68812 (engineered). As to the kind of experiment: cell_activity. Conditions: pair with SBS68813, multiplex with B2M and CISH ZFNs plus GFP donor, T cells.
Data set [5] deals with ZFN SBS59488 (engineered). As to the kind of experiment: cell_activity. The following applies: pair with SBS59489, multiplex with TRAC and B2M ZFNs plus GFP donor, T cells.
In data set [6] the test system is ZFN SBS57071 (engineered). Description: cell_activity. The following applies: pair with SBS57531, B2M ZFN only, human T cells.
Data set [7] relates to ZFN SBS57531 (engineered). Description: cell_activity. Conditions: pair with SBS57071, B2M ZFN only, human T cells.

Results on 7 substances are retold here after US20190048060A1.

In the case of “GAGGAGGTGGCAGAGGGTACCCCAGCCC (double strand) [CISH site 59489]”, in data set [1], the activity stood at 98 % knockout.
In the data set with human CD19 (human), “FMC63-CD8BBZ (CD19 CAR) (from UniProt P01732 138-206; Q07011 214-255; P20963 52-164)” returned a CD19+ K562 cells remaining after co-culture with CAR T cells at effector:target 2:1 (CAR inserted at the B2M gene) of 0.4% and a CD19+ K562 cells remaining after co-culture with CAR T cells at effector:target 2:1 (CAR inserted at the TCRA gene) of 0.1%.
In the case of “AACAGGTAAGACAGGGGTCTAGCCTGGG (double strand) [TCRA site 53853]”, the activity in data set [2] amounted to 88.3 % indels.
Consider “CTCCTGAAAGTGGCCGGGTTTAATCTGC (double strand) [TCRA site 68812/68876]”, for which, in data set [3], the activity (% knockout (CD3 loss)) is 97. Also, in data set [4], the activity is 93 % knockout.
“GGAAGGCCCCAGCAGGCAAGGGCTGCAT (double strand) [CISH site 59488]”: the activity in data set [5] was 98 % knockout.
In data set [6], “GCCACGGAGCGAGACATCTCGGCCCGAA (double strand) [B2M site 57071]” came in with an activity of 86.6 % indels.
“GAGTAGCGCGAGCACAGCTAAGGCCACG (double strand) [B2M site 57531]”: the activity in data set [7] came to 86.6 % indels.
